According to patent publication US20240390512A1, “METHODS OF TREATING CHEMOTHERAPY-RESISTANT CANCER WITH AN ANTIBODY-DRUG CONJUGATE” (DAIICHI SANKYO COMPANY, LIMITED, priority 2021, published 2024):
Numbering of substitutions follows the chain as printed.

T1: human CDH6 (full-length and EC domain deletion mutants) (Homo sapiens, UniProt P55285)
T1 construct: each one of the five EC domains could be deleted from full-length human CDH6; 3xFLAG (deletion mutants only, from the vector p3×FLAG-CMV-9); expressed in transfected cells; host or cells: 293α cells
T1 sequence (P55285 160-790): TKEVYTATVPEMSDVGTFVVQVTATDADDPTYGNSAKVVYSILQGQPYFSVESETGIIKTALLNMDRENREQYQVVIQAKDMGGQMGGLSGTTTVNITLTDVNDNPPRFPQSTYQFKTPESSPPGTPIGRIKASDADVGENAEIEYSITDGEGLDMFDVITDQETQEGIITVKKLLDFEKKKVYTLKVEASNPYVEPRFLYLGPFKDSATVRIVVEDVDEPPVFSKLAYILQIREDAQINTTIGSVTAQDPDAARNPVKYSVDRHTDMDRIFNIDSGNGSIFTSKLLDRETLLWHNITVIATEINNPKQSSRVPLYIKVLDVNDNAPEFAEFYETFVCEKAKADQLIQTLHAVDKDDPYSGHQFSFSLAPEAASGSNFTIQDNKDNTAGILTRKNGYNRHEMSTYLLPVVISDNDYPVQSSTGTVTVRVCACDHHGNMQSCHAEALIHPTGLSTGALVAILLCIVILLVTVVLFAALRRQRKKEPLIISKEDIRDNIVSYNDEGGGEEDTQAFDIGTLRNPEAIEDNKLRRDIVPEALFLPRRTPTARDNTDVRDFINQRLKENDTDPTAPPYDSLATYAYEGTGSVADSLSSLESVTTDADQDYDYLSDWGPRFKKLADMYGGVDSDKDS

T2: human CDH6 (full-length and EC domain deletion mutants) (Homo sapiens, UniProt P55285, DEL487-608)
T2 construct: each one of the five EC domains could be deleted from full-length human CDH6; 3xFLAG (deletion mutants only, from the vector p3×FLAG-CMV-9); expressed in transfected cells; host or cells: 293α cells
T2 sequence (P55285 with tags, fused parts or gaps DEL487-608): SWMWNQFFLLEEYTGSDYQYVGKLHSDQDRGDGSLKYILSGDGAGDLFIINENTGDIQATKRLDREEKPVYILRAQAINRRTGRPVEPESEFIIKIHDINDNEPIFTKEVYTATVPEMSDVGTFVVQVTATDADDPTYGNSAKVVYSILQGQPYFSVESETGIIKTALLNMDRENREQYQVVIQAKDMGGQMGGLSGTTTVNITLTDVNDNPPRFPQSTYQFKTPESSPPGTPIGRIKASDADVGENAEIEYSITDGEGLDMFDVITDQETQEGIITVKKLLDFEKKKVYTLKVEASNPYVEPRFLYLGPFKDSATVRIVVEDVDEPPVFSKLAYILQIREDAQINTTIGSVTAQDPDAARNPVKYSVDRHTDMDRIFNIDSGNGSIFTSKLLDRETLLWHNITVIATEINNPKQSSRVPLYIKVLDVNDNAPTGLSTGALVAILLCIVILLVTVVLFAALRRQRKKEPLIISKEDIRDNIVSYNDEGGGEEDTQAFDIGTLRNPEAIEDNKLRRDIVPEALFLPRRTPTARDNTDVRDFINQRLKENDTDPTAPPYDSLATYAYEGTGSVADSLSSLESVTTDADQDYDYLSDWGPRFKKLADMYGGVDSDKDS

B1: rG056: rat anti-human CDH6 monoclonal antibody produced by hybridoma rG056; variable regions SEQ ID NO: 30 and 35 (antibody, listed as Rattus norvegicus, V domains shown)
VL: DVQMTQSPSSLAASPGESVSISCRATKSIGIYLAWYQQKPGKTFKLLIYSGSTLQSGTPSRFSGSGSGTDFTLTIRSLEPEDFGLYFCQQFYENPFTFGSGTKLEIRRA
VH: EVQLQESGPGLVKPSQSLSLTCSVTDYSITTYFWGWIRKFPGNKMEWMGYMSYRGGTSYNPSLKSRISITRDTSKNQFFLQLNSVTTEDTATYYCARCPNYGGHSLVFDYWGQGVMVTVSS
B2: rG055: rat anti-human CDH6 monoclonal antibody produced by hybridoma rG055; variable regions SEQ ID NO: 20 and 25 (antibody, listed as Rattus norvegicus, V domains shown)
VL: DVQMTHSPSYLAASPGESVSISCKTSKNISNYLVWYQQKPGEAYKLLIYSGSTLQSGTPSRFSGSGSGTDFTLTIRSLEPEDFGLYFCQQYYEKPFTFGSGTKLEIKRA
VH: EVQLQESGPGLVRPSQSLSLSCSVTDYSITSNYWGWIRRFPGNKMEWMGYITYSGYTSYNPSLQSRISITRDTSKNQFFLQLNSVTAEDTATYYCARSINHGGYSYVVDAWGPGASVTVSS
B3: rG061: rat anti-human CDH6 monoclonal antibody produced by hybridoma rG061; variable regions SEQ ID NO: 40 and 45 (antibody, listed as Rattus norvegicus, V domains shown)
VL: B2 VL with H6Q, T25A, S26T, N28S, V34A, L46V, F87S, F96L
VH: EVQLQESGPGLVKPSQSLSLTCSVTGYSITTYYWGWIRKFPGNKMEWMGYISYSGRTSYNPSLKSRMSITRDASKNQFFLQLNSVTTDDTATYYCARSPINHGGYWYFDFWGPGTMVTVSS
B4: rG019: rat anti-human CDH6 monoclonal antibody produced by hybridoma rG019; variable regions SEQ ID NO: 10 and 15 (antibody, listed as Rattus norvegicus, V domains shown)
VL: DIQMTQSPSLLSASVGDRVTLNCKASQNIYKNLAWYQQKLGEGPKLLIYDANTLQTGIPSRFSGSGSGSDFTLTISSLQPEDVATYFCQQYYSGWAFGGVTNLELKRA
VH: QVQLQQSGAELVKPGSSVKISCKASGYTFTRNFMHWIKQQPGNGLEWIGWIYCGDGETEYNQKFNGKATLTADRSSSTAYMELSRLTSEDSAVYFCARGVYGGFAGGYFDFWGQGVMVTVSS

target: T1, human CDH6 (full-length and EC domain deletion mutants); experiment: Epitope analysis of rat anti-CDH6 antibody by flow cytometry using domain deletion mutants; type: binding; conditions: flow cytometry; transfected 293α cells; antibody 20 nM
Excerpt: (§1) The full-length extracellular region of human CDH6 has five extracellular domains, EC1 (SEQ ID NO: 2), EC2 (SEQ ID NO: 3), EC3 (SEQ ID NO: 4), EC4 (SEQ ID NO: 5), and EC5 (SEQ ID NO: 6). A gene to be expressed such that each one of the five EC domains could be deleted from full-length human CDH6 was synthesized by GeneArt, and incorporated into p3×FLAG-CMV-9 vectors for mammalian expression (Sigma-Aldrich Co. LLC) according to a method known to a person skilled in the art in order to produce an expression vector for each domain deletion mutant lacking any one of EC1 to EC5.
(§2) The epitopes to which the rat anti-human CDH6 antibodies bound were identified by flow cytometry analysis using a 293α cell line transfected with each EC domain deletion vector. Using Lipofectamine 2000 (Thermo Fisher Scientific Inc.), each domain deletion mutant expression vector produced in Reference Example 2)-2-1, or pcDNA3.1-hCDH6 for the expression of full-length human CDH6 was transiently introduced into a 293α cell line, which was a cell line derived from HEK293 cells by stable transfection with integrin αv and integrin […] expression vectors. The cells were cultured overnight under conditions of 37° C. and 5% CO2, and thereafter, a cell suspension was prepared. The suspension of the transfected 293α cells was centrifuged, and a supernatant was then removed. Thereafter, the cells were suspended by the addition of each of the 4 rat anti-CDH6 monoclonal antibodies (clone Nos: rG019, rG055, rG056 and rG061), which had been prepared in Reference Example 1)-7, or rat IgG control (R&D Systems, Inc.) (final concentration: 20 nM). The cells were left standing at 4° C. for 1 hour. The cells were washed twice with PBS supplemented with 5% FBS, and then suspended by the addition of Anti-Rat IgG (whole molecule)-FITC antibody produced in rabbit (Sigma-Aldrich Co. LLC) that had been 50-fold diluted with PBS supplemented with 5% FBS. The cells were left standing at 4° C. for 1 hour. The cells were washed twice with PBS supplemented with 5% FBS, followed by detection using a flow cytometer (Canto II; BD Biosciences). The data was analyzed using FlowJo (Tree Star, Inc.). In the histograms of FIGS. 2-1 to 2-6, the abscissa depicts FITC fluorescence intensity indicating the amount of the antibody bound, and the ordinate depicts cell count. […] Fluorescence intensity is enhanced when the antibody binds to full-length hCDH6 or each EC domain deletion mutant on the surface of cells. The rat IgG control binds to none of the transfected cells.

binding to EC1 deletion mutant | Molecule
bind | B1
bind | B2
bind | B3
bind | B4

target: T2, human CDH6 (full-length and EC domain deletion mutants); experiment: as above; type: binding; conditions: flow cytometry; transfected 293α cells; antibody 20 nM
Excerpt: as §1, §2

binding to EC5 deletion mutant | Molecule
bind | B1
bind | B2
bind | B3
bind | B4
